We go through two substances from publication PMC9668914, “Understanding VPAC receptor family peptide binding and selectivity” (Nature Communications, 2022).

The target of this test is PACAP type 1 receptor (PAC1R), PAC1null splice variant, FLAG and His tagged (UniProt P41586).
PACAP type 1 receptor (PAC1R), PAC1null splice variant, FLAG and His tagged, sequence (P41586 21-468, change not shown): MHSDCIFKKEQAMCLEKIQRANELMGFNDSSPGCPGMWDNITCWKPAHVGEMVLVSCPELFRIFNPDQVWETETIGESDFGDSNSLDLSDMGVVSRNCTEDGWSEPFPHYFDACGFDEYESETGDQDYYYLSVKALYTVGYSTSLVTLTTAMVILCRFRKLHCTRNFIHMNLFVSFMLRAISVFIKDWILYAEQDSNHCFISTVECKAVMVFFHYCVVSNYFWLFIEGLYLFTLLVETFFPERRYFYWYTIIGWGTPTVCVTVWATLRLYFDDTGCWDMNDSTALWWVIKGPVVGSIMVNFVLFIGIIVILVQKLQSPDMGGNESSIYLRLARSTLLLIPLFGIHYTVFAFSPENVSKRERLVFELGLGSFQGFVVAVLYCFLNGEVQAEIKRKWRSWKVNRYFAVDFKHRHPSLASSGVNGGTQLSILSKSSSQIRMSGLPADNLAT

In turn, Ala4 PACAP27 (peptide) had a cAMP potency in COS-7 cells transfected with PAC1R, fold change relative to PACAP27 of 5 fold. Substance Gly4 VIP (peptide) displayed a cAMP potency in COS-7 cells transfected with PAC1R, fold change relative to VIP of 3 fold.
